# Test results as given in patent EP4582447A1 (Quaerite Biopharm Research (Beijing) Co., Ltd., dated 2025).
# Residue numbers refer to the chain shown, from its start.
# T1: human VEGFA121 (human, UniProt P15692-9 27-147)
# T1 sequence (looked up): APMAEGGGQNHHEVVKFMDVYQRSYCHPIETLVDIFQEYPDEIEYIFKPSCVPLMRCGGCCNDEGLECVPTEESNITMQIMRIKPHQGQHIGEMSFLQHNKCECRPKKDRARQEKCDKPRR
# B1: V1 (VHH)
# VHH: QLQLVESGGGSVQPGGSLRLSCEVSGRTFSSYTMGWFRQAPGKEREFVVAISKGGYKYDSVSLEARFTISKDNTKNTVYLQMNSLKPEDTAVYYCAATRAYGSSRLRLADTYEYWGQGTQVTVSS
# notes: also called candidate antibody V1; antibody V1
# B2: V1-SA1 (VHH)
# VHH: B1 VHH with Q1E, L2V, S11L, E23A, K71R, T74A, K86R, Q120L
# notes: Humanized V1; also called humanized antibody V1-SA1; monovalent nanobody V1-SA1
# B3: V15 (VHH)
# VHH: B1 VHH with S30A, A97G, D110E
# notes: Purified with C-terminal GGGGS-6×His; also called candidate antibody V15
# B4: V15-4m (VHH)
# VHH: EVQLVESGGGLVQPGGSLRLSCAASGRTFASYTMGWFRQAPGKEREFVVAISKGGYKYDSVSLEARFTISRDNAKNTVYLQMNSLRPEDTAVYYCAGTRAYGSSRLRLAETYEYWGQGTLVTVSS
# notes: Humanized V15
# B5: V15-2m (VHH)
# VHH: B4 VHH with A74S
# notes: Humanized V15
# B6: V30 (VHH)
# VHH: B1 VHH with E44G, S60A, D110K
# notes: Purified with C-terminal GGGGS-6×His; also called candidate antibody V30
# B7: V31 (VHH)
# VHH: B1 VHH with S30A, S60A, A97G, D110K
# notes: Purified with C-terminal GGGGS-6×His
# B8: V40 (VHH)
# VHH: B1 VHH with S30T, D59N, S60A, A97G, D110K
# notes: as for B7
# B9: V13 (VHH)
# VHH: B1 VHH with S30T, S60A, A97G
# notes: Purified with C-terminal GGGGS-6×His; also called candidate antibody V13
# B10: V8 (VHH)
# VHH: B1 VHH with D59N, S60T, A97G, R107K, D110E
# B11: V19 (VHH)
# VHH: B1 VHH with D59N, R107K, D110N
# B12: V22 (VHH)
# VHH: B1 VHH with R107K
# B13: V25 (VHH)
# VHH: B1 VHH with S30T, Q39R, A97G, R107K, D110K
# B14: V18 (VHH)
# VHH: B1 VHH with D59N, A97G
# B15: V6 (VHH)
# VHH: B1 VHH with S60T, A97G, R107K
# B16: V21 (VHH)
# VHH: B1 VHH with S30T, D59N, S60T, A97G, D110E
# notes: as for B7
# B17: V14 (VHH)
# VHH: B1 VHH with S30T, D59N, S60T, A97G, D110N
# notes: as for B7
# B18: V17 (VHH)
# VHH: B1 VHH with S60T, D110K
# notes: as for B7
# B19: linear tandem bivalent nanobody 2V15-9GS (VHH)
# chain: QLQLVESGGGSVQPGGSLRLSCEVSGRTFASYTMGWFRQAPGKEREFVVAISKGGYKYDSVSLEARFTISKDNTKNTVYLQMNSLKPEDTAVYYCAGTRAYGSSRLRLAETYEYWGQGTQVTVSSGGGGSGGGSQLQLVESGGGSVQPGGSLRLSCEVSGRTFASYTMGWFRQAPGKEREFVVAISKGGYKYDSVSLEARFTISKDNTKNTVYLQMNSLKPEDTAVYYCAGTRAYGSSRLRLAETYEYWGQGTQVTVSS
# notes: no further tag added here
# B20: V40-4H-4m (VHH)
# VHH: B4 VHH with A30T, D59N, S60A, G97S, E110K
# notes: Humanized V40
# B21: V30-3H-2m (VHH)
# VHH: B4 VHH with A30S, E44G, S60A, A74S, G97A, E110K
# notes: Humanized V30
# B22: V40-3H-4m (VHH)
# VHH: B4 VHH with A30S, D59N, S60A, G97S, E110K
# notes: Humanized V40
# B23: V40-3H-2m (VHH)
# VHH: B4 VHH with A30S, D59N, S60A, A74S, G97A, E110K
# notes: Humanized V40
# B24: V40-4H-2m (VHH)
# VHH: B4 VHH with A30T, D59N, S60A, A74S, G97A, E110K
# notes: Humanized V40
# Biological target: T2, Human VEGFA165 (human, UniProt P15692-4 27-191)
# T2 construct: treated as the same molecule; also called antigen VEGFA
# Experiment: SPR Biacore 8K, VEGFA165 amine-coupled on CM5, nanobody as analyte, 1:1 model
Kd,koff,kon,Binder
0.247 nM,0.000101 s⁻¹,409000 M⁻¹ s⁻¹,B1

# Biological target: T2, Human VEGFA165
# Experiment: competition ELISA on coated VEGFA, competitor VEGFR2-ECD-Fc 2 nM
# Target sequence in this assay (P15692 other isoform, or with tags, fused parts or gaps limits assumed): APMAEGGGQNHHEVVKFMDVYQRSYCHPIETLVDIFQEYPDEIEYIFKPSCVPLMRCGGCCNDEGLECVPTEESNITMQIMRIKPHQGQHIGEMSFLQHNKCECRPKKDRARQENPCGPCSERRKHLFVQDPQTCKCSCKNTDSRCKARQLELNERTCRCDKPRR
IC50,Maximum inhibition rate (%),Binder
26.4 nM,95%,B1
22.5 nM,94.6%,B2
29.3 nM,71.6%,B3
26 nM,87.2%,B4
31.7 nM,84.8%,B5

# Biological target: T2, Human VEGFA165
# Experiment: competition ELISA on coated VEGFA, competitor VEGFR2-ECD-Fc 1 nM
# Target sequence in this assay (P15692 other isoform, or with tags, fused parts or gaps limits assumed): as above
IC50,Maximum inhibition rate (%),Binder
5.72 nM,94.8%,B6

# Biological target: T2, Human VEGFA165
# Experiment: SPR, VEGFA165 on CM5
row,fold difference of KD from the positive control BI-VEGF ab,Binder
1,< 3 fold,B1
2,< 3 fold,B7
3,< 3 fold,B8
4,< 3 fold,B9
5,< 3 fold,B3
6,< 3 fold,B6

# Biological target: T2, Human VEGFA165
# Experiment: phage ELISA, VEGFA coated 0.5 µg/mL, anti-M13(HRP)
# Target sequence in this assay (P15692 other isoform, or with tags, fused parts or gaps limits assumed): as above
row,OD450,Binder
1,0.924 OD450,B10
2,2.47 OD450,B11
3,1.64 OD450,B12
4,1.29 OD450,B13
5,2.94 OD450,B14
6,1.36 OD450,B15

# Biological target: T2, Human VEGFA165
# Experiment: SPR Biacore 8K, V1-SA1 amine-coupled on CM5, VEGFA165 as analyte, two state reaction model (kd1)
row,koff,Binder
1,0.0598 s⁻¹,B2

# Biological target: T2, Human VEGFA165
# Experiment: SPR Biacore 8K, V1-SA1 amine-coupled on CM5, VEGFA165 as analyte, two state reaction model
row,Kd,Binder
1,4.38 nM,B2

# Biological target: T2, Human VEGFA165
# Experiment: ELISA, VEGFA coated 0.3 µg/mL, anti-His detection
# Target sequence in this assay (P15692 other isoform, or with tags, fused parts or gaps limits assumed): as above
row,EC50,Binder
1,0.53 nM,B1
2,0.67 nM,B7
3,0.84 nM,B8
4,0.89 nM,B3
5,0.6 nM,B6

# Biological target: T2, Human VEGFA165
# Experiment: competition ELISA on coated VEGFA, competitor VEGFR2-ECD-Fc 1 nM
# Remark: another data set of the same source
# Target sequence in this assay (P15692 other isoform, or with tags, fused parts or gaps limits assumed): as above
IC50,Maximum inhibition rate (%),Binder
5.59 nM,90.5%,B1
4.62 nM,88.3%,B16
2.07 nM,97.5%,B7
7.48 nM,92.2%,B8
4.58 nM,94.9%,B17
3.89 nM,94.6%,B3
16.3 nM,80.4%,B18
3.54 nM,96.5%,B6

# Biological target: T2, Human VEGFA165
# Experiment: ELISA, VEGFA coated 0.3 µg/mL, anti-His detection
# Remark: another data set of the same source
row,EC50,Binder
1,0.25 nM,B19

# Biological target: T2, Human VEGFA165
# Experiment: cell-based or functional assay
# Target sequence in this assay (P15692 other isoform, or with tags, fused parts or gaps limits assumed): as above
"IC50 (pM), inhibition of VEGFA-stimulated HUVEC proliferation (CCK-8)",Maximum inhibition rate (%) of HUVEC proliferation,Binder
2690 pM,103%,B1
3940 pM,94.7%,B9
7120 pM,84.2%,B3
1270 pM,87.4%,B6

# Biological target: T2, Human VEGFA165
# Experiment: phage ELISA, VEGFA coated 0.5 µg/mL, anti-M13(HRP)
# Remark: another data set of the same source
row,OD450,Binder
1,2.67 OD450,B7
2,3.11 OD450,B8
3,2.68 OD450,B6

# Biological target: 3% milk powder (negative control)
# Experiment: phage ELISA, 3% milk powder coated (negative control), anti-M13(HRP)
row,OD450,Binder
1,0.0377 OD450,B1
2,0.0236 OD450,B10
3,0.0186 OD450,B16
4,0.0273 OD450,B11
5,0.0363 OD450,B7
6,0.0353 OD450,B12
7,0.0362 OD450,B8
8,0.0354 OD450,B13
9,0.0252 OD450,B17
10,0.0134 OD450,B14
11,0.0473 OD450,B15
12,0.0144 OD450,B9
13,0.0126 OD450,B3
14,0.0403 OD450,B18
15,0.0436 OD450,B6

# Biological target: T2, Human VEGFA165
# Experiment: SPR Biacore 8K, VEGFA165 amine-coupled on CM5, nanobody as analyte, 1:1 model
# Remark: another data set of the same source
Kd,koff,kon,Binder
0.247 nM,0.000101 s⁻¹,409000 M⁻¹ s⁻¹,B1
0.62 nM,0.000172 s⁻¹,277000 M⁻¹ s⁻¹,B7
0.305 nM,0.000108 s⁻¹,353000 M⁻¹ s⁻¹,B8
0.224 nM,8.65e-05 s⁻¹,386000 M⁻¹ s⁻¹,B9
0.277 nM,9.61e-05 s⁻¹,347000 M⁻¹ s⁻¹,B3
0.214 nM,0.000136 s⁻¹,635000 M⁻¹ s⁻¹,B6

# Biological target: T2, Human VEGFA165
# Experiment: phage ELISA, VEGFA coated 0.5 µg/mL, anti-M13(HRP)
# Remark: another data set of the same source
row,OD450,Binder
1,2.31 OD450,B1
2,2.15 OD450,B16
3,2.03 OD450,B17
4,2.14 OD450,B9
5,1.87 OD450,B3
6,3.47 OD450,B18

# Biological target: T1, human VEGFA121
# Experiment: ELISA, human VEGFA121 coated 0.3 µg/mL, anti-His detection
row,EC50,Binder
1,1.27 nM,B1

# Biological target: T2, Human VEGFA165
# Experiment: ELISA, VEGFA coated 0.3 µg/mL, anti-His detection
# Remark: another data set of the same source
row,EC50,Binder
1,2.03 nM,B8
2,2.34 nM,B20
3,1.38 nM,B21
4,2.05 nM,B22
5,1.42 nM,B4
6,1.64 nM,B23
7,2.04 nM,B5
8,2.82 nM,B24

# Biological target: T2, Human VEGFA165
# Experiment: SPR Biacore 8K, V1-SA1 amine-coupled on CM5, VEGFA165 as analyte, two state reaction model (ka1)
row,kon,Binder
1,1.06e+06 M⁻¹ s⁻¹,B2
